Results reported in article PMC9972897 (Science immunology, 2023).
Residue numbers refer to the chain shown, from its start.

B1: rbd.043 (antibody, V domains shown)
VH: QVQLVQSGAEVKKPGSSVKVSCKVSGGSFSNYGISWVRQAPGQGLEWMGGIIPLFGPADYAQKVQGRVTITADKSTSTAYMELRSLRSEDTAVYFCARGVEIVATIVGPLVREDHYYYYGMDVWGQGTTVTVSS
VL: not shown
B2: sd1.033 (antibody, V domains shown)
VH: QVQLVQSGAEVKKPGSSVKVSCKASGGVYSTYAVSWVRQAPGQGLEWIGGIIPMFGTANYAQNFQGRVTITADESTRTAYMEVSSLRSEDTAVYYCASPSAPTYYYDSSRYYSFDYWGQGTLVTVSS
VL: EIVLTQSPGTLSLSPGERATLSCRASQSVSSNFLAWFQQKPGQPPRLLIYGASSRATGIPDRFSGSGSGTDFTLTISRLVPEDFAVYFCQQYGSSRYSFGQGTKLEIK
B3: sd1.103 (antibody, V domains shown)
VH: QVQLVQSGAEVKKPGSSMKVSCKASGGTLNNYAIIWVRQAPGQGLEWMGGIIPMFGAANYAQNFQGRVTITADESTRTAYLELSSLRSEDTAMYYCARVVIPYLGAHYYHYGVDVWGQGTTVTVSS
VL: B2 VL with S30T, F33Y, F37Y, P44A, T57A, S64N, V80E, F88Y, S98T
B4: sd1.127 (antibody, V domains shown)
VH: EVQLVESGGALVKPGGSLTLSCVASGFTFSHAWMTWVRQAPGKGLEWVGRIKTKTEGGTIDYAAPLRGRFTISRDDSKNTLYLRMNSLKIEDTAKYYCTTHSSPDYWGQGTLVTVSS
VL: DIQMTQSPSSLSASIGDRVTITCRASQGIGNSLLWYQQKRGKVPKLLIYAASTLQSGVPSRFSGSGSGTDFTLTISSLQPEDVATYYCQRYNSAPLTFGGGTKVEIK
B5: rbd.046 (antibody, V domains shown)
VH: EVQLVESGGGVVQPGRSLRLSCAASGFTFSHYGMHWVRQAPGKGLEWVAVISYDGSNKYYADSVKGRFTISRDNSKSTLYLQMNSLRAEDTAVYYCAKGEWYYDIFTGYYPYWGQGTLVTVSS
VL: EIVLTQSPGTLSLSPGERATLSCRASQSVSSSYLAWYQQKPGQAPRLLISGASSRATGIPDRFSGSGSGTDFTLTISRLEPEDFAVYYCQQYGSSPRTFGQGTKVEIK
B6: rbd.045 (antibody, V domains shown)
VH: QVQLQESGPGLVKPSETLSLTCTVSGGAFRSFFWTWIRQPPGKGLEWIGNIYYSGSTNYNPSLKSRVTISQDMSENQFSLKLSSVTAADTAVYYCARSQWLRGNFDHWGQGILVTVSS
VL: NFMLTQPHSVSESPGKTVTISCTATSGYIASNYVQWYQQRPGSAPTTVIYEDNQRPSGVPDRFSGSIDSSSNSASLTISGLKPEDEADYYCQSFDTAYAVFGGGTQLTVL
B7: rbd.048 (antibody, V domains shown)
VH: EVQLVESGGGLVQPGGSLRLSCAASGFTVSSNYMTWVRQAPGKGLEWVSVIYSGGSTFYTDSVKGRFTISRDNSKNTLYLQMNSLRAEDTAVYYCARDVVYYGMDVWGQGTTVTVSS
VL: DIQMTQSPSSLSASVGDRVTITCRASQSISSYLNWYQQKPGKAPKLLIYAASSLQSGVPSRFSGSGSGTDFTLTISSLQPEDFATYYCQESYSNSPYTFGQGTKLEIK
B8: sd1.100 (antibody, V domains shown)
VH: QVQLQESGPGLVKPSQTLSLTCSVSGDSITSGNYYWSWIRQHPGKGLEWIGNIFHTGNTYYNPSLKSRVTISIDTSKNQFSLKLSSVTAADTALYYCARDHKRLEGDWFDPWGQGSLVTVSS
VL: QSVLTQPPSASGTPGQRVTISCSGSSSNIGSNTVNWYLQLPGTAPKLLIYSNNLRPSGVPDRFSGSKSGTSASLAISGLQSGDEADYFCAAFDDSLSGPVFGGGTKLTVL
B9: sd1.107 (antibody, V domains shown)
VH: QVQLVQSGAEVKKPGSSVKVSCKASGGTFSSYAISWVRQAPGQGLEWMGGIIPMFGTTNYAQKFQGRVTITADESTSTAYMELSSLRSEDTAVYYCARVTHLNWRRGYEVGRISGAFDIWGQGTMVTVSS
VL: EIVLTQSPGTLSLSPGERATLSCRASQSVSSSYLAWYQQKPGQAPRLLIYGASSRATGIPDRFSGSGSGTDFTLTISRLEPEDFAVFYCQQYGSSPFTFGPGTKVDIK
B10: sd1.129 (antibody, V domains shown)
VH: QVQLVQSGAEVKRPGSSVKVSCKASGGAFSNYAISWVRQAPGQGLEWMGGIIPIFGTTNYAQRFQGRVTISADESTGTAYMELSSLRFADTAIYYCARADAYSGSYYPSANWFDPWGQGTLVTVSS
VL: EIVLTQSPATLSLSPGERATLSCRASQSVSNYLAWYQQKPGQAPRLLIYDASNRATGIPARFSGSGSGTDFTLTISSLEPEDFAVYYCQQRQNWPPGWTFGQGTKVEIK
B11: rbd.038 (antibody, V domains shown)
VH: QVQLVQSGAEVKKPGASVKVSCKASGYTFSGYYMHWVRQAPGQGLEWVGWISPTSGGTKYAQKFQGRVTMTRDTSITTVYMELNRLRSDDTAVYYCAREPFPYCTSDICHSNYFYYYAMDVWGQGTTVTVSS
VL: QSALTQPPSASGSPGQSVTISCTGSSSDLGDHNYVSWYQQHPGKAPKVMIYEVSKRPSGVPDRFSGSKSGNTASLTVSGLQAEDEADYYCSSYAGSLYVFGTGTKVTVL
B12: sd1.132 (antibody, V domains shown)
VH: QVQLVQSGTEVKKPGSSVKVSCKASGGTFSSYAISWVRQAPGQGLEWMGGIIPMFGAPNYAQKVQGRVTITADESTSTAYMELSSLRSEDTAVYYCARMEYSNSPGRGGYYFYSNGMDVWGQGTTVTVSS
VL: EIVLTQSPATLSLSPGERATLSCRASQSVSTYLAWLQQKPGQAPRLLMYDASNRASGIPARFSGSGSGTEFTLTISSLEPEDFAVYYCQQRTYWPLTFGGGTKVEIK
B13: rbd.049 (antibody, V domains shown)
VH: QLQLQESGPGLVKPSETLSLSCTVSGGSISSKSDYWGWIRQSPGKGLEWIGSIYYTGTTYYNPSLKSRVSISLDKSKNQFSLKLNSLTAADTALYYCARDPSIAVATTVYFDAWGQGTLVTVSS
VL: EIVLTQSPGTLSLSPGERATLSCRASESVKSNYLAWYQQKLGQPPRLLIFGASTRATGIPDRFSGSGSGTDFTLTISRLEPEDFAVYYCQQYHTSPPRYTFGQGTKLEIK
B14: sd1.034 (antibody, V domains shown)
VH: EVQLVESGGGVVQPGRSLRLSCAASGFSFSNYGMHWVRQAPGKGLEWVAVISYDGSHKSFADSVKGRFTISRDNSKNTLNLQMNSLRREDTAVYYCATDQGGSLGYWGQGTLVTVSS
VL: QSALTQPASVSGSPGQSITISCTGTSGDVGGYNYVSWYQHHPGKAPKLMIYDVSNRPSGVSNRFSGSKSGNTASLTISGLQAEDEADYYCSSYTSTSTSWVFGGGTKLTVL
B15: sd1.032 (antibody, V domains shown)
VH: QVQLVQSGAEVKRPGSSVKVSCKASGGTFNNYAMTWVRQAPGQGLEWMGGIIPMLGTENYAQKFQGRVTITADESTSTAHMELSSLRSEDTAVYYCARLTVPTPHSYYSYGLDAWGQGTTVTVSS
VL: QSALTQPASVSGSPGQSITISCTGTSSDVGSYNLVSWFQQHAGRAPKLMIYEGNKRPSGISNRFSGSKSGNTASLTISGLQAEDEADYYCCSYAGSSTHVFGTGTKVTVL
B16: sd1.108 (antibody, V domains shown)
VH: QVQLVQSGAEVKKPGASVKVSCKASGYTFTSYYIHWVRQTPGQGLEWMGIINPRGGSTSYPQKFQGRVSMTRDTSTSTVFMELSSLRSDDTAVYYCAREHREDTAMDNQPSDSWGQGTLVTVSS
VL: DIVMTQSPDSLSVSLGERATINCKSSRSVFYSSNNKSYLAWYQQKPGQPPKLLIYWASTRESGVRDRFSGSGSGTDFTLTISSLQAEDVAVYYCQQYYNTPYTFGQGTKLEIK
B17: sd1.151 (antibody, V domains shown)
VH: EVQLVESGGGLVKPGGSLRLSCAVSGFTFSNAWMTWVRQAPGKGLEWVGRIKTKPEGGTTDYATPVKGRFTISRDDSIDTLYLQMNSLKTEDTAVYYCSTFSSPDHWGQGTLVTVSS
VL: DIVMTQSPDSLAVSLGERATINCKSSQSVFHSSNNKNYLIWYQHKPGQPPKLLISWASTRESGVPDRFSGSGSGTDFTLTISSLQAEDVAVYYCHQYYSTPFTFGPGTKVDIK
B18: sd1.102 (antibody, V domains shown)
VH: QVQLVQSGAEVKKPGSSVKVSCKASGGTFSSYAISWVRQAPGQGLEWMGGIIPLYGTANYAQKFQGRVTITADESTSTTYMELSSLTSEDTAVYYCVRFRGGDYYYYYGMDVWGQGTTVTVSS
VL: EIVMTQSPATLSVSPGESATLSCRASQTVSTNLAWYQQKPGQAPRLLIFGASTRATGIPARFSGSGSGTEFTLSISSLQSEDFAVYYCHQYNSRRTFGQGTKLEIK
B19: sd1.039 (antibody, V domains shown)
VH: EVQLVQSGAEVKKPGESLKISCKASGYSFPTYWIGWVRQMPGKGLEWMGIIYPGDSDTRYSPSFQGQVTISADKSISTAYLQWSSLKASDTAIYYCARYGDSHIDSWGQGTLVTVSS
VL: QSVLTQPRSASASLGASVTLNCTLSSGYSKYKVEWYQQRPGKGPRFLMRVGAGGIVGSKGDGIPDRFSVLGSGLNRYLIIKNIQQEDESDYHCGADHGSGSNFAYVVFGGGTKLTVL
B20: sd1.047 (antibody, V domains shown)
VH: EVQLVESGGGVVEPGRSLRLSCVASGFPFKNYGMHWVRQAPGKGLEWMAVISYDGRLEYYAESVQGRFTISRDTSRKTLYLQMDSLRVDDTAVYYCAKDGVMGFCSGDDCTPPFDSWGQGTLVTVSS
VL: QSALTQPASVSGSPGQSITISCTGTSSDVGGYNYVSWFQQYPGKAPQLLIYEVSNRPSGVSNRFSGSKSGNTASLTISGLQAEDEADYYCSSYAGSPYVFGIGTRVTVL
B21: rbd.031 (antibody, V domains shown)
VH: EVQLVESGGGVVQPGRSLRLSCAASGFTFKTYGMHWVRQAPGKGLEWVAVISYEGSNEYYAESVKGRFTISRDNSKNTLYLHMNSLRAEDTAVYYCAKGEYYYHSSTYYYLDYWGRGTLVTVSS
VL: DIQMTQSPSTLSASVGDRVTITCRASQSISSWLAWYQQKPGKAPKVLIYDASSLQSGVPLRFSGSGSGTEFTLTISSLQPDDFATYYCQQYDTYWTFGQGTKVEIK
B22: rbd.035 (antibody, V domains shown)
VH: EVQLLESGGGLIEPGGSLRLSCAASGFPFNTFAMTWVRQPPGKGLEWVATISSRGDYTFYADFVKGRFSISRDNANNALWLDMSGLRAEDTALYYCAKGESGYDLYLYGLDLWGQGTTVTVSS
VL: DIQMTQSPSSLSASVGDGVTITCRASQNINNYLSWYQKKAGKAPKLLIYGASTLHSGVPSRFSGSGSGTDFTLTISSLQPEDFASYYCQQNSPTPPWTFGQGTKVEIK
B23: sd1.150 (antibody, V domains shown)
V domain 1: EVQLVESGGGVVQPGRSLRLSCAASGFTFSSHGMHWVRQAPGRGLEWVAVISFDGRNKFYVDSVKGRFTISRDNSKNTLYLHMNSLRAADTAVYYCAKDHDPDGSGSYFSNWFDAWGQGTLVTVSS
V domain 2: SYELTQPPSVSVSPGQTASITCSGDKLGDKYAYWYRQKPGQSPVVVIYQDNKRPSGIPERFSGSNSGNTATLTISGTQAMDEADYYCQAWDTYSGVFGTGTQVTVL

target: SD1-RBD of SARS-CoV-2 S (ancestral), aa 319-591 (SARS-CoV-2, ancestral (Wuhan-Hu-1; …, UniProt P0DTC2)

Row | Binder | binding result
1 | B1 | binds
2 | B2 | binds
3 | B3 | binds
4 | B4 | binds
5 | B5 | binds
6 | B6 | binds
7 | B7 | binds
8 | B8 | binds
9 | B9 | binds
10 | B10 | binds
11 | B11 | binds
12 | B12 | binds
13 | B13 | binds
14 | B14 | binds
15 | B15 | binds
16 | B16 | binds
17 | B17 | binds
18 | B18 | binds
19 | B19 | binds
20 | B20 | binds
21 | B21 | binds
22 | B22 | binds
23 | B23 | binds
